Results on two molecules are retold here after paper PMC10097392, “Ligand Installation to Polymeric Micelles for Pediatric Brain Tumor Targeting” (Polymers, 2023).

This assay has as its target T1, CD276/B7-H3 (Homo sapiens (endogenous on DAOY …, UniProt Q5ZPR3)).
T1 construct: CD276/B7-H3, transmembrane protein, endogenous on medulloblastoma patient-derived DAOY cells; source: endogenous, on GFP-expressing DAOY (HTB-186) medulloblastoma cells
In words: immunostaining of cells or tissue; inhibition assay on live GFP-expressing DAOY cells: CD276Ab at 0, 12.5, 25.0, 50.0 and 100 ug/mL for 1 h at 37 °C, washed, then DBCO-CD276Ab-Cy5 (30.0 ug/mL) for 1 h at 37 °C; Cy5 fluorescence within cells by confocal laser scanning microscopy. The following applies: one partner purified.

T1 sequence (Q5ZPR3 29-534): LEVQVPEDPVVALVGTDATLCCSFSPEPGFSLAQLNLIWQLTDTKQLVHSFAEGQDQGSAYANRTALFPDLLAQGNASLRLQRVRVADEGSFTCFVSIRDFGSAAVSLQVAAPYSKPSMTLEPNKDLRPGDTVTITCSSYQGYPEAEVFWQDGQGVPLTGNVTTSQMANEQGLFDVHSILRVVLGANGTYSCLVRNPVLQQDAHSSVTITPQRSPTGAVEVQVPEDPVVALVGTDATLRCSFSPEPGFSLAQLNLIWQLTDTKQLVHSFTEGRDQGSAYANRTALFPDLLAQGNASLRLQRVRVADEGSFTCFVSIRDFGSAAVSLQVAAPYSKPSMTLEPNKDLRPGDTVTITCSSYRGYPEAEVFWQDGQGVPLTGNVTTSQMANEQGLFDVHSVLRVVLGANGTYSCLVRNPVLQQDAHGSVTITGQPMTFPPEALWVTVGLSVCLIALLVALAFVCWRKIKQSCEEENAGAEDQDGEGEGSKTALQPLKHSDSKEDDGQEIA

B1: Cy5-labeled DBCO-CD276Ab (DBCO-CD276Ab-Cy5) (antibody, V domains shown)
VH: QVQLQQSGAELVKPGASVKLSCKASGYTFTNYDINWVRQRPEQGLEWIGWIFPGDGSTQYNEKFKGKATLTTDTSSSTAYMQLSRLTSEDSAVYFCARQTTATWFAYWGQGTLVTVSA
VL: DIVMTQSPATLSVTPGDRVSLSCRASQSISDYLHWYQQKSHESPRLLIKYASQSISGIPSRFSGSGSGSDFTLSINSVEPEDVGVYYCQNGHSFPLTFGAGTKLELK
notes: as in m1: constant region of the IgG heavy chain as far as it is not in PDB 5CMA; m1 chemically modified: DBCO-PEG4-NHS fed at 0.25 eq. to primary amines, then Cy5-NHS ester; also called the fabricated antibody; source: CD276Ab from Expi CHO cells, conjugated with DBCO-PEG4-NHS and Cy5-NHS ester, purified (Protein G HP SpinTrap)
B1: the binding result was “binds”.

B2: anti-CD276 antibody (CD276Ab), 8H9 antibody, IgG (antibody, V domains shown)
VH: QVQLQQSGAELVKPGASVKLSCKASGYTFTNYDINWVRQRPEQGLEWIGWIFPGDGSTQYNEKFKGKATLTTDTSSSTAYMQLSRLTSEDSAVYFCARQTTATWFAYWGQGTLVTVSA
VL: DIVMTQSPATLSVTPGDRVSLSCRASQSISDYLHWYQQKSHESPRLLIKYASQSISGIPSRFSGSGSGSDFTLSINSVEPEDVGVYYCQNGHSFPLTFGAGTKLELK
notes: heavy chain of 8H9; constant region of the IgG heavy chain as far as it is not in PDB 5CMA; light chain of 8H9; IgG; the fabrication scheme is said to be in the Supplementary Materials; also called 'as prepared' CD276Ab; source: Expi CHO cells, co-transfected with heavy and light chain vectors, purified from supernatant (rProtein A Sepharose, SEC)
Take B2: the binding result is “binds”.
